In patent US20250262297A1, “ALLERGY ANTIGEN AND EPITOPE THEREOF” (HOYU CO., LTD., priority 2017, published 2025):

B1: aconitate hydratase 1 (protein)
chain: MATENPFNSILTTLEKPGGAGEFGKYFSLPALNDRRIDRLPYSVRILLESAIRNCDEFQVKSNDVEKIIDWENTSPKLVEIPFKPARVLLQDFTGVPAVVDLACMRDAMNKLGGDSNKINPLVPVDLVIDHSVQVDVARSENAVQANMELEFQRNKERFGFLKWGSNAFNNMLVVPPGSGIVHQVNLEYLGRVVFNTNGVLYPDSVVGTDSHTTMIDGLGVAGWGVGGIEAEAAMLGQPMSMVLPGVVGFKLLGKLRDGVTATDLVLTVTQMLRKHGVVGKFVEFYGEGMSELSLADRATIANMSPEYGATMGFFPVDHVTLQYLRLTGRSDETVSMIESYLRANKMFVDYSEPQVERVYSSYLELNLEDVEPCVSGPKRPHDRVPLREMKVDWHACLNNKVGFKGFAVPKESQNKVAEFTFQGTPAHLRHGDVVIAAITSCTNTSNPSVMLGAALVAKKACELGLQVKPWIKTSLAPGSGVVTKYLQRSGLQKYLNELGFNIVGYGCTTCIGNSGDINEAVASAITENDIVAAAVLSGNRNFEGRVHPLTRANYLASPPLVVAYALAGTVDIDFDTEPIGIGKDGTKIFFRDIWPSSEEIANVVQSSVLPAMFRDTYNAITQGNPMWNNLSVPTGTLYAWDPTSTYIHEPPYFRDMSMSPPGSHGVKDAYCLLNFGDSITTDHISPAGSIHKDSPAARYLIERGVDRRDFNSYGSRRGNDEVMARGTFANIRIVNKFLNGEVGPKTIHIPSGEKLSVFDAAEKYKSEGHDMIILAGAEYGSGSSRDWAAKGPMLLGVKAVIAKSFERIHRSNLVGMGIIPLCFKPGDDADSLGLTGHERYTIDLPSNVNEIRPGQDVTVVTDAGKSFVSTLRFDTEVELAYFNHGGILQYVIRNMVNAKH
modifications: Glycine max
B2: transketolase, chloroplastic (protein)
chain: MASSTSSISLSQALLRPTTTSLPSSSSSLRLTPTLRPTPPALSLRRRLTTSIRAAASVKTVEKATADAALVEKSVNTIRFLAIDAVEKANSGHPGLPMGCAPMGHVLYDETMKYNPKNPFWFNRDRFVLSAGHGCMLQYALLHLAGFDSVKEEDLREFRQWGSRTPGHPENFETPGIEVTTGPLGQGIANAVGLALAEKHLAARYNKPDNEIVDHYTYAILGDGCQMEGIANEACSLAGHWGLGKLIAFYDDNHISIDGNTEIAFTESVDSRFEGLGWHVIWVKNGNNGYDDIRAAIKEAKAVKDKPTLIKVTTTIGYGSPNKANSYSVHGSALGAKEVDATRQNLGWSHEPFHVPEDVKKHWSRHTPEGAALEAEWNAKFAEYEKKYKEEAAELKSIINGEFPAGWEKALPTYTPESPADATRNLSQTNLNALAKVLPGLLGGSADLASSNMTLLKMFGDFQKDTPAERNVRFGVREHGMGAICNGIALHSPGLIPYCATFFVFTDYMRGAIRLSALSEAGVIYVMTHDSIGLGEDGPTHQPIEHLASFRAMPNILMLRPADGNETAGAYKVAVLNRKRPSILALSRQKLPQLPGTSIEGVEKGGYTISDNSTGNKPDVILIGTGSELEIAAKAADDLRKEGKAVRVVSLVSWELFDEQSEAYKESVFPAAVSARVSIEAGSTFGWEKIVGAKGKAIGIDRFGASAPAGRIYKEFGITKEAVVAAAKELI
B3: chaperonin CPN60-2, mitochondrial (protein)
chain: MYRFATSLASKARIARSSTQQIGSRVTWNRNYAAKDIKFGVEARALMLKGVEELADAVKVTMGPKGRNVVIEQSFGAPKVTKDGVTVAKSIEFKDKVKNIGASLVKQVANATNDVAGDGTTCATILTKAIFTEGCKSVAAGMNAMDLRRGINMAVDAVVTNLKSRARMISTSEEIAQVGTISANGEREIGELIAKAMEKVGKEGVITISDGKTLYNELEVVEGMKLDRGYISPYFITNQKNQKCELEDPLIIIHEKKISSINAIVKVLELALKRQRSLLIVAEDVESDALATLILNKLRAGIKVCAIKAPGFGENRKSGLQDLAVLTGGQLITEELGLNLEKVDLDLFGSCKKITISKDDTVILDGAGDKKAIEERCEQIRSAIENSTSDYDKEKLQERLAKLSGGVAVLKIGGASEAEVGEKKDRVTDALNATKAAVEEGIVPGGGVALLYASSELDKLQTANFDQKIGVQIIQNALKTPVHTIASNAGVEGAVVVGKLLEQNDPDLGYDAAKGEYVDMVKTGIIDPLKVIRTALVDAASVSSLMTTTEAVVSELPKDDKDVPAMGGGMGGMDY
modifications: Glycine max
notes: spot also identified as chaperonin CPN60-2, mitochondrial-like isoform X1

test system: IgE antibodies from soybean-allergic patients; assay: Immunoblotting of two-dimensional electrophoresis pattern of soybean proteins with patient serum; type: binding, human; details: spot in 2D electrophoresis gel of soybean proteins; patient serum compared with healthy subject serum
Outline: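 Soybean proteins were separated by 2-D electrophoresis, transferred to PVDF and blocked in 5% skim milk/PBST. Blots were probed with 3% serum from soybean-allergic patients or healthy subjects for 1 h at room temperature, then anti-human IgE-HRP (1:2500). Chemiluminescent substrate was used, with fluorescent image scanning.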

Molecule | specific binding to IgE antibodies from soybean-allergic patients
B1 | specific binding
B2 | specific binding
B3 | specific binding
